# Results as given in the nanobody polyreactivity screen of Harvey et al. (2022).
# Test: yeast display, Sf9 membrane polyspecificity reagent, FACS + sequencing; frameworks hold sequencing errors
# Summary of the method: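 After 36–48 hours of galactose induction, yeast (Saccharomyces cerevisiae BJ5465) displaying a synthetic nanobody library were stained at 4 °C for 1 hour with 10% biotinylated, detergent-solubilized Sf9 membrane reagent. Streptavidin microbeads enriched the stained cells before FACS sorting into low and high (top ~1%) gates on anti-HA and streptavidin fluorescence. Each clone's polyreactivity label reflects its gate of origin.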
row,Sequence,polyreactivity (PSR sort gate)
1,QVQLVESGGGLVQAGGSLRLSCAASGRTFRIYAEGWYRQPPGKERELVARITWSGGRTYYADSVKGRFTISRDNAQNTVYLQMNSLKPEDTAVYYCNAGGSWEFDYWGQGTQVTVSS,low polyreactivity
2,QVQLVESGGGLVQAGGSLRLSCAASGRTFRKYAMGWYRQAPGKERELVAAISWSGGSTYYANSVKGRFTISRDNAKNTVYLQMNSLKPEDTAVYYCAAVPVHTGSLYWGFTTGYDYWGQGTKVTVSS,low polyreactivity
3,QVQLVESGGGLVQAGGSLRLSCAASGRTFRKYTMGWYRQAPGKERELVAAISSRGGSTYYADSVKGRFTISRDNAKNTVYLQMNSLKPEDTAVYYCATDYITPSSEGDYWGQGTQVTVSS,high polyreactivity
4,QVQLVESGGGLVQAGGSLRLSCAASGRTFRLNAMGWYRQAPGKERELVAAITSSGGSTYYADSVKGRFTISRDNAKNTVYLQLNSLKPEDTAVYYCARRQGYGVRSIRWGDYWGQGTQVTVSS,high polyreactivity
5,QVQLVESGGGLVQAGGSLRLSCAASGRTFRLYAMGWDRPAPGKERELVAAITRGGRTTYADSVKGRFTISRDNAKNTVYLQMNSLKPEDTAVYYCAARYVERHTDYYYWGQGTQVTVSS,low polyreactivity
6,QVQLVESGGGLVQAGGSLRLSCAASGRTFRLYAMGWYREAPGKERELVAAISYSGGSTYYADSVKGRFTISRDNAKNTVYLPMNSLKPEDTAVYYCAAYSGYYGGDDYWGQGTQVTVSS,high polyreactivity
7,QVQLVESGGGLVQAGGSLRLSCAASGRTFRLYAMGWYRQAPGKERELVAAIRSGGSTNYADSVKGRFTISRDNAKNTVYLQMNSLKPEDTAVYYCAVDGYFFQGPYYYWGQGTQVTVSS,low polyreactivity
8,QVQLVESGGGLVQAGGSLRLSCAASGRTFRNNAMGLCRQAPGKEREFVAVISNTGGSTYYADSVKGRFTISRDNAKNTVYLQMNSLKPEDTAVYYCAVRPRYSQYYYWGQGTQVTVSS,high polyreactivity
9,QVQLVESGGGLVQAGGSLRLSCAASGRTFRPYAMGWYRQAPGKERELVAAISSRGSSTYYADSVKGRFTISRDNAKNNVYLQMNSLKPEDTAVYYCAARSYWGGLRYDYWGQGTQVTVSS,high polyreactivity
10,QVQLVESGGGLVQAGGSLRLSCAASGRTFRPYAMGWYRQAPGKERELVAAITGGTRTYYADSVKGRFTISRDNAKNTVYLQMNSLKPEDTAVYYCAKGDFFSKHDYLGQGTQVTVSS,low polyreactivity
11,QVQLVESGGGLVQAGGSLRLSCAASGRTFRPYAMGWYRQAPGKERELVAAITRSGGSTYYADSVKGRFTISRDNAKNTVYLQMNSLKPEDTAVYYCAAYNTYSDTYDYWGQGTQVTVSS,low polyreactivity
12,QVQLVESGGGLVQAGGSLRLSCAASGRTFRQYAMGWYRQAPGKERELVADISSGGSTYYADSVKGRFTISRDNAKNTVYLKLNRLKPEDTAVYYCNKVSSGRYGSRSFDYWGQGTQVTVSS,low polyreactivity
13,QVQLVESGGGLVQAGGSLRLSCAASGRTFRRNAMGWYRQAPGKERELVAAISWRGVSTYYADSVKGRFTISRDNAKNTVYLQMNSLKPEDTAVYYCAVDFLYTRRDYWGQGTQVTVSS,high polyreactivity
14,QVQLVESGGGLVQAGGSLRLSCAASGRTFRRYAMGWYRQAPGKEREFVAAIRYSGGNTYYADSVKGRFTISRDNAKNTVYLQMNSLKPEDTAVYYCAARTYGKYRYSTYYYWGQGTQVTVSS,low polyreactivity
15,QVQLVESGGGLVQAGGSLRLSCAASGRTFRRYAMGWYRQAPGKERELVAAISRGANTNYADSVKGRFTISRDNAKNTVYLQMNSLKPEDTAVYYCIAKQAGYYFAFGYWGQGTQVTVSS,high polyreactivity
16,QVQLVESGGGLVQAGGSLRLSCAASGRTFRRYAMGWYRQAPGKERELVAASSRGANTNYADSVKGRFTISRDNAKNTFYLQMNSLKPEDTAVYYCNAKQAGYYFAFGYWGQGTQVTVSS,high polyreactivity

row,Sequence,polyreactivity (PSR sort gate)
1,QVQLVESGGGLVQAGGSLRLSCAASGRTFRRYAMGWYRQAPGNERELVAAISYNGGRTYYADSVKGRFTISRDNAKNTVYLQMNSLKPEDTAVYYCNARGPSWFGGRYYHWGQGTQVTVSS,high polyreactivity
2,QVQLVESGGGLVQAGGSLRLSCAASGRTFRRYTMGWYRQAPGKERELVATISSGGSTYADSVKGRFTISRDNAKNTVYLQMNSLKPEDTAVYYCAARYDVAWYSKRYSWGQGTQVTVSS,high polyreactivity
3,QVQLVESGGGLVQAGGSLRLSCAASGRTFRRYTMGWYRQAPGKVRELVAAITTSGGSTYYADSVKGRFTISRDNAKNTVYLQMNRLKPEDTAVYYCAATRRYSGDYWGQGTQVTVSS,high polyreactivity
4,QVQLVESGGGLVQAGGSLRLSCAASGRTFRRYVMGWYRQAPGKERELVAAISYSGATTYYADSVKGRFTISRDNAKNTVYLQMNSLKPEDTAVYYCAATAPGDRYFWGQGTQVTVSS,high polyreactivity
5,QVQLVESGGGLVQAGGSLRLSCAASGRTFRSNAMGGYRQAPGKERELVAAITYSGDRTYYADSVKGRFTISRDNAKNTVYLQMNSLKPEDTAVYDCNKYSRQYTYGYWGQGTQVTVSS,high polyreactivity
6,QVQLVESGGGLVQAGGSLRLSCAASGRTFRSYAMGWYRQAPGKEREFVAAISRSGASTRYADSVKGRFTISRDNAKNTVYLQMNSLKPEDTAVYYCAARYYPWKVNRFSYWYDYWGQGTQVTVSS,high polyreactivity
7,QVQLVESGGGLVQAGGSLRLSCAASGRTFRSYAMGWYRQAPGKERELVAAISYGGGRTFYADSVKGRFTISRDNAKNTVYLQMNSLKPEDTAVYYCNAAFPRSYRFDYWGQGTKVTVSS,high polyreactivity
8,QVQLVESGGGLVQAGGSLRLSCAASGRTFRSYAMGWYRQAPGKERELVAAITWGGGRTYYADSVKGRFTISRDNAKNTVYLQMNSLKPEDTAVYYCATRVKFSTSYWLYYWGQGTQVTVSS,high polyreactivity
9,QVQLVESGGGLVQAGGSLRLSCAASGRTFRTNAMGWYRQAPGKERELVAAIRASTGSTYYADSVKGRFTISRDNAKNTVYLQMNSLKPEDTAVYYCAATTQGVRYGYWGQGTQVTVSA,high polyreactivity
10,QVQLVESGGGLVQAGGSLRLSCAASGRTFRTNAMGWYRQEPGKERELVASITWRGDSTYYADSVKGRFTISRDNAKNTVYLQMNRLKPEDTAVYYCAAGGFYWGYLWGRYDYWGQGTQVTVSS,high polyreactivity
11,QVQLVESGGGLVQAGGSLRLSCAASGRTFRTNDMGWYRQAPGKERELVARITRGGSTYADSVKGRFTISRDNAKNTVYLHMNSLKPEDTAVYYCAAVTKLSGIRYNYWGQGTQVTVSS,low polyreactivity
12,QVQLVESGGGLVQAGGSLRLSCAASGRTFRVNAMGWYRQAPGKERELVAAITSSGGNTYADSVKGRFTISRDNAKNTVYLQMNSLKPEDTAVYYCAAVSSTRGDYWGQGTQVTVSS,high polyreactivity
13,QVQLVESGGGLVQAGGSLRLSCAASGRTFRVYAMGWYRQAPGKEREFVAAISYSGGRTNYADSVKGRFTISRDNSKNTVYLQMNSLKPEDTAVYYCAARYSWAEGDYWGQGTQVTVSS,low polyreactivity
14,QVQLVESGGGLVQAGGSLRLSCAASGRTFRVYAMGWYRQAPGKEREFVAAITDSGGRTYYADSVKGRFTISRDNAKNTVYLQMNSLKPEDTAVYYCNAYQYYERYDTYLFRYDYWGQGTQVTVSS,low polyreactivity
15,QVQLVESGGGLVQAGGSLRLSCAASGRTFRVYAMGWYRQAPGKERELVAAIRSGGSTNYADSVKGRFTISRDNAKNTVYLQMNSLKPEDTAVYYCAAVYRNNRQGYQFDYWGQGTQVTVSS,high polyreactivity
16,QVQLVESGGGLVQAGGSLRLSCAASGRTFRVYAMGWYRQAPGKERELVAAISRSTGDTYYADSVKGRFTISRDNAKNSVYLLMNRLKPEDTAVYYCAADVPGGEGDYAYEYWGQGTQVTVSS,low polyreactivity
